The results in this text go back to paper PMC9788556 (2022).

Where two headings read alike, the source gives them in different places.

Assay [1] addresses T1, Pfs230 D1D2 (aa 587–889) (Plasmodium falciparum, UniProt P68874 587-889).
T1 chain: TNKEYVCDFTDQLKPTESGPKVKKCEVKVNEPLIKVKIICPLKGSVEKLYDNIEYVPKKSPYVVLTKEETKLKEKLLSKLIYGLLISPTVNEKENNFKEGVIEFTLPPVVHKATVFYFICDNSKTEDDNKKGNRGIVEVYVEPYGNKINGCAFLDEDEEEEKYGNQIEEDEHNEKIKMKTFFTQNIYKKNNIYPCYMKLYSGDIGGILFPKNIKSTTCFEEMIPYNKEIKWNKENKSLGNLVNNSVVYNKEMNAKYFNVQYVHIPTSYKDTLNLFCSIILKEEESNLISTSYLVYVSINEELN
The experiment in a line: BLI. For orientation: BLI is a label-free optical method that tracks binding on a fibre tip over time.

Assay [2] deals with T2, Pfs230 D1 (aa 587–731) (Plasmodium falciparum, UniProt P68874 587-731).
T2 chain: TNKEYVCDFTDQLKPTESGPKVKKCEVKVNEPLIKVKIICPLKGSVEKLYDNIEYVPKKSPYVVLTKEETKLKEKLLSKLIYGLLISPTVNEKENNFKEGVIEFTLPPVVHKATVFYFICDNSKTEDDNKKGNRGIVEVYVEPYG
The assay can be described thus: BLI.

For assay [3], the target named is T1, Pfs230 D1D2 (aa 587–889). The experiment in a line: BLI; representative curve.
Assay [4] concerns the target T2, Pfs230 D1 (aa 587–731). The assay can be described thus: BLI; representative curve.
Assay [5] addresses T1, Pfs230 D1D2 (aa 587–889). The experiment in a line: BLI.
In assay [6] the target is T2, Pfs230 D1 (aa 587–731). The experiment in a line: BLI.
Assay [7] addresses T1, Pfs230 D1D2 (aa 587–889). The assay can be described thus: BLI.
Assay [8] deals with T3, Pfs230 Pro-D1D2 (aa 532–889) (Plasmodium falciparum, UniProt P68874 532-889).
T3 chain: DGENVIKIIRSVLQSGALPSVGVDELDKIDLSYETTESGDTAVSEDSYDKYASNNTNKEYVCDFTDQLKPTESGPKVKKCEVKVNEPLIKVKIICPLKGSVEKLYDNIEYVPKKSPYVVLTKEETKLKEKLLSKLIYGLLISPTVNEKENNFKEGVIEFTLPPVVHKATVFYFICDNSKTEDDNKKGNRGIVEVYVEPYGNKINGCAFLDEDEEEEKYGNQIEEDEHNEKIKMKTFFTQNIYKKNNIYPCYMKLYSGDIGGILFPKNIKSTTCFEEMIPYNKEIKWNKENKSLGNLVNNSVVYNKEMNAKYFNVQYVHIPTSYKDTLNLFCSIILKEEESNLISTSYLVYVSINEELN
The experiment in a line: BLI.

Assay [9] addresses T1, Pfs230 D1D2 (aa 587–889). The assay can be described thus: BLI; representative curve.
Assay [10] deals with T3, Pfs230 Pro-D1D2 (aa 532–889). The experiment in a line: BLI; representative curve; only three curves fitted.
The target is the same in assay [11]. The experiment in a line: BLI; only three curves fitted.

B1: nanobody G5 (VHH)
VHH: QVQLQESGGGLVQAGGSLRLSCAASGRTFNDYAMYWFRQAPGKEREFVADITWSGSSTYYADSVKGRFTISRDNAKNTVFLQMNSLKPEDTALYYCAADSRYYGIGIGTPRYWGQGTQVTVSS
Turning to B1, the koff in [1] is 0.000579 s⁻¹; in [2], 0.000635 s⁻¹. The Kd in assay [3] was 8.18 nM; in assay [4] it was 3.25 nM; in assay [5], 9.09 nM; in assay [6] it was 3.36 nM.

B2: nanobody D1 (VHH)
VHH: QVQLQESGGGLVQAGDSLRLSCTASGRTFSNHAMGWFRQAPGKEREIVAVIFGTGRNSWYVDSVKGRFTISRDNAKNTVALQMNRLKPEDTAVYYCASGRTWYSGSSMAEYDYWGQGTQVTVSS
Molecule B2 yielded a koff in assay [2] of 3.72e-05 s⁻¹. Also, the Kd in assay [4] turned out to be 0.29 nM; in assay [6], 0.14 nM.

B3: F5-Fc (Fc fusion)
chain: QVQLQESGGGLVQPGGSLRLSCAASGFTLDRYAIGWFRQAPGKEREGVSCISSSDGSTYYADSVKGRFTISRDNAKNTVYLQMNSLKPEDTAVYYCARDHGPCTVLADILYDYGMDYWGKGTQVTVSS
Take B3: the koff in assay [7] turned out to be 0.000351 s⁻¹; in [8], 0.000644 s⁻¹. The same molecule returned a Kd in assay [9] of 0.66 nM.

B4: nanobody F5 (VHH)
VHH: QVQLQESGGGLVQPGGSLRLSCAASGFTLDRYAIGWFRQAPGKEREGVSCISSSDGSTYYADSVKGRFTISRDNAKNTVYLQMNSLKPEDTAVYYCARDHGPCTVLADILYDYGMDYWGKGTQVTVSS
B4: the koff in [1] was 0.000313 s⁻¹; in assay [2], 0.000316 s⁻¹. Besides, the Kd amounted to 1.13 nM in assay [3], 1.01 nM in assay [4], 1.22 nM in [5] and 0.81 nM in [6].

B5: nanobody F10 (VHH)
VHH: QVQLQESGGGLVQAGGSLRLSCAASGRTFSDYFMGWFRQAPGKEREFVAAVSWSGGSTYYADSVKGRFTISRDNAKNTVFLQMNSLKPEDTAVYYCAGGGSYYPMSPYDGMDYWGKGTQVTVSS
With B5, the koff in assay [1] was determined as 8.19e-05 s⁻¹; in [2], 4.8e-05 s⁻¹. For the same molecule, the Kd in assay [3] was determined as 0.4 nM; in [4], 0.26 nM; in assay [5] it was 0.45 nM; in assay [6], 0.12 nM.

B6: F10-Fc (Fc fusion)
chain: QVQLQESGGGLVQAGGSLRLSCAASGRTFSDYFMGWFRQAPGKEREFVAAVSWSGGSTYYADSVKGRFTISRDNAKNTVFLQMNSLKPEDTAVYYCAGGGSYYPMSPYDGMDYWGKGTQVTVSS
With B6, in assay [10], the Kd was 446 nM. The figures for the koff in assay [11] and in [7] were 0.00171 s⁻¹ and 3.99e-05 s⁻¹, respectively.

B7: nanobody D6 (VHH)
VHH: QVQLQESGGGLVQAGDSLRLSCAASGRTFSSYFMGWFRQAPGKEREFVAAISWSGGSTYYADSVKGRFTISRDNVKNTVYLQMNSLEPEDAAVYYCAGGGSYYPMSPRNGMDYWGKGTQVTVSS
In the case of B7, the koff in [1] came to 0.000108 s⁻¹; in assay [2], 0.000158 s⁻¹. In addition, the dissociation constant (Kd) was determined as 0.51 nM in [3], 0.79 nM in assay [4], 0.63 nM in [5] and 0.39 nM in assay [6].

B8: nanobody G2 (VHH)
VHH: QVQLQESGGGLVQAGGSLRLSCAASGRTFSNYFMGWFRQAPGKEREFVAAVSWSGGSTYYADSVKGRLTISRDNAKNTVYLQMNSLKPEDTAVYYCAAGERYFPMEPRRGYDYWGQGTQVTVSS
Regarding B8, the koff in [1] was 0.00016 s⁻¹; in assay [2], 0.000179 s⁻¹. Besides, the Kd was found to be 1.07 nM in [3], 0.36 nM in assay [4], 1.11 nM in [5] and 0.49 nM in assay [6].

B9: nanobody A11 (VHH)
VHH: QVQLQESGGGLVQPGESLRLSCAASGRTSSSYAMGWFRQAPGKEREFVASISWSGGSTYYADSVKGRFTLSRDNAKNTVYLQMNSLKPEDTAVYYCAADGIFYSDYPLSVDDFHSWGQGTQVTVSS
Regarding B9, the koff in assay [1] is 0.000152 s⁻¹; in assay [2], 0.00039 s⁻¹. Besides, the Kd in [3] stood at 1.25 nM; in assay [4], 1.47 nM; in assay [5] it was 1.43 nM; in assay [6] it was 1.56 nM.

B10: nanobody A10 (VHH)
VHH: QVQLQESGGGLVQAGSSLRLSCAASGGTFSNYAMGWFRQAPGKEREFVAAIGWSGGTYYTDSVEGRFTISRDNAKNTVYLQMNSLKPEDTAVYYCAAKRSGSSWSERGYDYWGQGTQVTVSS
With B10, the koff in [1] stood at 0.000805 s⁻¹; in assay [2], 0.000788 s⁻¹. For the same molecule, the Kd in assay [3] was determined as 5.5 nM; in assay [4] it was 4.56 nM; in [5] it was 5.87 nM; in assay [6], 3.18 nM.

B11: nanobody D11 (VHH)
VHH: QVQLQESGGGLVQAGSSLRLSCAASGRTFSSYAMGWFRQAPGKEREFVAAIGWSGGTYYTDSVEGRFTISRDNAENTVYLQMNSLKPEDTAVYYCAAKASGSSWSERGYDYWGQGTQVTVSS
For B11, the koff in [1] was determined as 0.00262 s⁻¹; in [2], 0.00256 s⁻¹. In addition, the Kd was 15.5 nM in [3], 10.8 nM in assay [4], 16.1 nM in assay [5] and 8.31 nM in assay [6].

B12: nanobody B4 (VHH)
VHH: QVQLQESGGGLVQPGGSLRLSCAASGFTLDYYGIGWFRQAPGKEREGVSCISSSDGSTYYADSVKGRFTISRDNAKNTVYLQMNSLKPEDTAVYYCAADLTGIGCTTAQAMGVIGDFGDFGSWGQGTQVTVSS
With B12, the koff in [1] amounted to 0.00152 s⁻¹; in [2], 0.00138 s⁻¹. Also, the Kd in assay [3] was found to be 4.62 nM; in [4] it was 2 nM; in assay [5], 4.8 nM; in assay [6], 1.71 nM.

B13: nanobody E11 (VHH)
VHH: QVQLQESGGGLVQPGGSLRLSCAASGFTSDYYGIGWFRQAPGKEREGVACISSSDGSTYYADSVKGRSTISRDNAKNTVYLQMNSLKPEDTAVYYCAADLSGIGCTTAQAMDVIGDFGDFGSWGQGTQVTVSS
Turning to B13, the koff is 0.000733 s⁻¹ in [1] and 0.000539 s⁻¹ in [2]. In addition, the Kd in [3] was determined as 2.4 nM; in assay [4] it was 3.16 nM; in [5], 2.54 nM; in assay [6] it was 2.61 nM.

B14: nanobody E1 (VHH)
VHH: QVQLQESGGGLVQPGGSLRLSCAASGRTFSSYFMGWFRQAPGKGRVFVASISWSGGSTYYADSVKGRFTISRDNAENTVYLQMNSLKPEDTAVYYCAAGTRATPLDWASGMDYWGKGTQVTVSS
For the molecule B14, the koff is 0.000409 s⁻¹ in [1] and 0.00019 s⁻¹ in assay [2]. Also, the Kd in assay [3] was found to be 3.58 nM; in assay [4] it was 0.43 nM; in assay [5], 3.91 nM; in assay [6], 0.75 nM.

As a reminder, the koff is the first-order rate constant of dissociation. A higher koff goes with fast dissociation. Broadly, the Kd is the equilibrium constant for the complex coming apart.
